Experimental data reported in the domain aggregation screens of Martell et al. (2025).

Assay: soluble fraction after stress (log2 fold change); higher = more stays soluble; pooled small domains, quantitative proteomics
Details: stress: pH 4
How it was run: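 Small protein domains from pooled custom libraries were exposed to pH 4, then quantified with high-throughput quantitative proteomics. The fold change in how much of each domain remains soluble is read as aggregation propensity. It is given as log2, with higher values meaning more stayed soluble.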

| Sequence | soluble fraction (log2) |
| --- | --- |
| HMEEFLSFIADILEVDKNTLTLETSQDDVETWDSLMQLRLLGEIEAKYGVMIPMERISTIKKLNDFYQYIK | -1.76 |
| HMEEIIPIRFLRHRVKRRETIFGLTQKYNITEDQLKRYNTRLYSEALERKMVLQIPVFPEVDED | -0.667 |
| HMEEITLQEQINFIKDMLLNKEKFHLTDVITKKSKIYVVSLFLALLELIRLEEINFRQTQNFSDIIISRI | -0.381 |
| HMEELGKVRPELDGNEIAKVLGITPGPVLGRAYTYLLSVRLDEGPIGPDVARERLLAWWAEQPES | -2.01 |
| HMEELIEMNGVVMEILPDSRYRVTLDNGHKLIAYTGGKMKKNHIRILAGDKVTLELSPYDINNGRITFRHI | -0.146 |
| HMEELTDSELNNLYRELFIARSNASDGVGIIEQKTIKGITYRLSNDNNYLIKELGNKEYIYKNGVWEEYT | 0.0623 |
| HMEENNIVIYITGAVKKEGIYEIKENSRISDAIEAAGGLLENANIKDINLAYIIEDGVKIYIPTNEEVNK | -1.35 |
| HMEEPFRIEKKGDIYYISGKTVERLVAMTDLDNDSAVKRLQRTLKRMGVEDALREHGINPGDTVVIGNYEF | 0.04 |
| HMEEQIEVPVQINGKVRSKLTVAPETDEKQIEALALADPKVQQQLEGKRVLKVIVAQKRLVNIVA | -0.035 |
| HMEESTYQWNNFVRDFYASRVSAQYTNKLKVAAILWHHVKNTPQSKIYHDNLVSKYAEEINYFK | -0.387 |
| HMEETEVPPVTGYEQSKASEVLTGKGLIPDIITVADEETAAGYVIRTDPASGEKVPSGTTVKVYVSSGP | -0.0585 |
| HMEETGFYIKLQDQEVVIFHNDQVTPYEYTGIREEVLPESELEKLREGFFVEDEKELYSVLENLS | -0.412 |
| HMEETLEELGKEYESAFTMYEKLWSYYKKQNYHQVNHKRSERYEILLGFVREYHPEKVEYYRELL | -0.482 |
| HMEETLRALAKKISEKVLKSGRSTTLEPMNPYERRIIHSAVSEIEGVSSKSVGEEPYRKVVISSDNP | -0.0148 |
| HMEETLRELAVKISKQVIKTGRNSVLEPMNPYERRIIHAVISEIEGVSSKSVGEDPNRKVVIMSTNP | -1.07 |
| HMEEYTVEFVKHKVKRKQTLYTISKLYNVSIDDIIKYNSQIEGFNLSRRMELNIPVKKTLIVKNE | -0.823 |
| HMEFDTEFVLRQAMHAFMQYGYAKTSMQKLKEATHLHPGSIYAAYGNKKGLFLAATEQYQKDR | -0.101 |
| HMEFEYFQLRDHLYNLIMHPDKEKLKKDPDYLKLMSMAFSLLEDQNVGKDILEIAIKSIENFK | -0.674 |
| HMEFLDLEIDVDATDGRLLAFLAAKGEVVSQTFNDTIITVRVRMPTGAMGQVHRSALAIRPA | -1.43 |
| HMEFLDQAFLHETMRKVNQDATINLLKKVYEVPQKFIGRKVTVQYDPEDLSRVYVKDLSFPEPVTVYPV | 0.12 |
| HMEFNDLNDDEKAILHIMYNTGEKMTTALAARITNRGRNFASKLLKSLVKKEILEWHGTSKQDRNQYYTLA | -0.337 |
| HMEFQVKVIVSSLNIRSGPGTSYDTLGTVTKGDIFTIVETNSDSTWGKMQSGGWISIKDAYVKK | -0.216 |
| HMEFTFTLPRGYIDDTGMIHREGTMRLANAADEILPLKDPRVQQNPGYLTIILLARVITKLGSL | -0.165 |
| HMEFTKSPLDEIAGVGPARKRALLAAFGTAKAVSQAALADLEKTPGVNAATARLVYAHFHEK | 0.22 |
| HMEFTVFMNSAGGSKLQVVKTVKELTGLGLKEAKAIVDGSPGPVKEGLSKADAEAMLAKLQEAGADVEL | -0.117 |

| Sequence | soluble fraction (log2) |
| --- | --- |
| HMEFYYSDLVGMIVYDTGGNELGKVQAVLNHGAGDLLEIHGVNLKTSILIPFTKEAVPTVDIAARRIVTDP | 0.00543 |
| HMEGAEDMNRALALAFLRDNSRSTVAQLAEHLGSSKRSAERLVAQLKDEGVLERQGSPRAGLWIVHI | 0.221 |
| HMEGEVVESPLVGVAYLASGPDKPAFVQVGDSVSKGQTLLIIEAMKVMNEVPAPRDGIVTEILV | -0.279 |
| HMEGFSAGQFVRASVDNTAFYLKRPKGDAVADKLLRRGASMKVISASGDYLKVELDSGEVGFVPPVMVE | 0.0892 |
| HMEGIWAVFYDGKPINLKSSSLVANYPGPKYKKVSFSNPGHAENLAKKLNAQHNTDKFGVYLLKSGDKFS | 0.219 |
| HMEGMSIYVTVNGDMVHLTGKMSYVFVDVFEHIDFDLSKPQGSGIVTKLNGRDAQYMEEIRSGDMIEIYWR | -0.669 |
| HMEGNLVEIFEDAFGRTMSTMDIEYINQFKRTGYDDEMIVSALREAVKSNALSFRYIERVLENWAHS | -1.83 |
| HMEGTEVTTEPPGAQIEFDGKQFGPTPTRVPGLAAGKQFRITLAGYQEAKPKLKNNPKEGEPLSFTLTAI | 0.264 |
| HMEGTVQQDKFDAYKAKFEDAISNDLNTSMAITIIYDLLKDDMNDKTKLALINDFDKVLSLNLTTA | -1.17 |
| HMEGVTVPDVTRISLDEAEELLTSYGLRFEVADRRANSAFPGNYVIDQAPSAEVIVKPNRKIYLTVNAA | -0.188 |
| HMEHDTVLSKVFRRLREAHVPLSLDDIYQGLRKTVNNNSEIREKIVTLQERGLVAEILGPKGGKKYVAKPT | 0.199 |
| HMEHIEVDTSHIAVGSKVKHKAFGLGEITDKGNTYVFVKFDGQAIPKKFQFPGAFTQGFLTK | 0.154 |
| HMEHPNNTELTQKLELGTELMQYGDYNYALKVFNNVIDSDPEWSEAWNKRATVYFLMSQFTDSLSDIDRV | -0.17 |
| HMEIDMQEGIKTIILMMKEHNITPSEAMKIYKSANGDIHYISKIYNHFKNKGADNFVALMIKMVKPGEFIE | -0.398 |
| HMEIEETKKNSRTKIPENFDYKLINGLSNEIRAKLELIRPIDLLQASRIDGMTPAALTLVHLWIKKYSG | -0.419 |
| HMEIEIPEELQNKFAEIPELKTAFESLTPGRQRAYVLYFSQPKQSKTREARIEKYIPHILDGKGMN | 0.0591 |
| HMEIESAHAQVLGVREIAASGATQHWIAFRFSDGHQRELLATPSQADVIFRGQQGVVHFAGDRLTGWIPE | -0.198 |
| HMEIEYFDDEELDAYKGRKSDSYTDEEAAQFAEVLYTMRPSEVKDWTASLTLRGISMPDQIKDEAIMLME | -0.984 |
| HMEIGELITLYRKQAGLTIDELSEKANVPKGTLNKIIGGITKAPTLETMRSIAYALGKKLADFDN | 0.107 |
| HMEIHQVEFGGKVISFVLERKPVKNVNLHIKPDMTVMVSANEKVPLDFILGFVKQKAAWILKNIQFFEDV | -1.08 |
| HMEIKDQADAYGKMEPASAAAILSEMTNDLTLVAKILDSMQTSKSALILQNMKPTTAAQVTTKMTAMK | -0.11 |
| HMEILTRQLTHYLHLLPPAQQEVVRGVYLQDQTLQEIADRVQIPLGTVKSRLRLGLSKLREQIEQEHE | 0.291 |
| HMEIMELPEYVVRSGSGLDAFREKWDLWDQGLMYDLKDKRAVFPIFIDGVMIDAVGRALAGAEPKWLRYTG | -0.554 |
| HMEINEDEIYEKIMIEIEQDNKVKSTWAKALSQSDGNKDKAESLYISMRFEELKYHQSYQKEELNLKDNQQ | -0.989 |
| HMEIPRYRLIGADGGRMVDLGEGQGAIPPVDVKRGMIDMPGLGKGYYTADGKSAVITNADGSKTRVL | 0.304 |
